# Laboratory results as given in PMC7949053, “Natural variants modify Klebsiella pneumoniae carbapenemase (KPC) acyl–enzyme conformational dynamics to extend antibiotic resistance” (The Journal of Biological Chemistry, 2020).
# Experiments:
# [1] = tested on: CC(C)(O/N=C(\C(=O)N[C@@H]1C(=O)N2C(C(=O)[O-])=C(C[n+]3ccccc3)CS[C@H]12)c1csc(N)n1)C(=O)O; assay: purified protein; settings: 10 mM HEPES pH 7.5, 150 mM NaCl, 25 °C, standard error in parentheses
# [2] = tested on: CO/N=C(\C(=O)N[C@@H]1C(=O)N2C(C(=O)O)=C(COC(C)=O)CS[C@H]12)c1csc(N)n1; assay: purified protein; settings: 10 mM HEPES pH 7.5, 150 mM NaCl, 25 °C, standard error in parentheses, n = 3
substance,measurement,setting,value
KPC-2 (Klebsiella pneumoniae),Km,[1],530 (70) μM
same,kcat,[1],1.9 s⁻¹
same,kcat/Km,[1],3500 M⁻¹ s⁻¹
same,Km,[2],200 (29) μM
same,kcat,[2],76 s⁻¹
same,kcat/Km,[2],380000 M⁻¹ s⁻¹
